Test results from article PMC4643928.

Experiments:
Assay in all cases: fluorescence anisotropy
Details in all cases: FA: 20 mM Tris-HCl pH 7.5, 70 mM KCl, 1 mM MgCl2, 10% glycerol, 50 nM DNA, EMSA: 20 mM Tris-HCl pH 7.5, 300 mM KCl, 4 mM MgCl2, 5 mM DTT, 1 nM …
[1] = test system: MBP-PfGyrA-CTD(ΔN) (Plasmodium falciparum)
[2] = test system: MBP-PfGyrA-CTD (Plasmodium falciparum)
[3] = test system: EcGyrA-CTD(ΔT) (Escherichia coli)

37-bp dsDNA
Kd [1]: 222 nM | Kd [2]: 205 nM | Kd [3]: 1110 nM
